Conditions in all cases: protein: recombinant; label: 32P 5' end; blunt
Series [1] concerns the target T1, GST-Pax6 paired domain (PD) (UniProt P63015 4-130). Briefly: EMSA; stronger than WT; EMSA: 2 ug protein, 20000 cpm 32P probe, 1 ug poly(dI-dC), 5% TBE polyacrylamide gel; buffer, salt, pH and temperature not given (as in ref. 35). A general note: A gel shift assay detects complexes by their altered migration in electrophoresis.
In series [2] the target is GST-Pax6(5a) paired domain (PD5a) (UniProt P63015-2 4-144). Nature of the series: EMSA; EMSA: 2 ug protein, 20000 cpm 32P probe, 1 ug poly(dI-dC), 5% TBE polyacrylamide gel; buffer, salt, pH and temperature not given (as in ref. 35).
GST-Pax6(5a) paired domain (PD5a), sequence (P63015 other isoform, or with tags, fused parts or gaps): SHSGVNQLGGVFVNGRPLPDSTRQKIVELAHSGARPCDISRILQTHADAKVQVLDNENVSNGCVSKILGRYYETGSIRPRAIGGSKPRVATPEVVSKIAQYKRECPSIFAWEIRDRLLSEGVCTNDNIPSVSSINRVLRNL
Series [3] concerns the target T1, GST-Pax6 paired domain (PD). The description is as above.

T1 sequence (P63015 4-130): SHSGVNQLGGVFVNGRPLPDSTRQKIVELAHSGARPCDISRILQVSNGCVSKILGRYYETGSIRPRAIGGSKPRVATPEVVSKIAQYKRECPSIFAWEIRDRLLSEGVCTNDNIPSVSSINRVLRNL

B1: mDkk3 5aCON MUT (dsDNA)
DNA 1: GGAGGAAGCTACCCTGTATCCGATTTTTCGAGAGGTGGAGGAG
DNA 2: CTCCTCCACCTCTCGAAAAATCGGATACAGGGTAGCTTCCTCC
Regarding B1, the binding result in series [1] is recorded as “binds”.

B2: mDkk3 BSAP WT (dsDNA)
DNA 1: CATCTGGGGGCGGGCAGAGCAGCGGGGCGGGGCGGGACGGGCAAGAGGGG
DNA 2: CCCCTCTTGCCCGTCCCGCCCCGCCCCGCTGCTCTGCCCGCCCCCAGATG
As for B2, the binding result in series [2] is listed as “no binding”; in series [3] it was “binds”.

B3: mDkk3 5aCON OPT (dsDNA)
DNA 1: GGAGGAAGCTATGCTCAGTGAGATGTTCATTGAGGTGGAGGAG
DNA 2: CTCCTCCACCTCAATGAACATCTCACTGAGCATAGCTTCCTCC
On to B3, for which the binding result in series [1] was “binds”.

(Values after publication PMC4100929, “Pax6 Regulates the Expression of Dkk3 in Murine and Human Cell Lines, and Altered Responses to Wnt Signaling Are Shown in FlpIn-3T3 Cells Stably Expressing Either the Pax6 or the Pax6(5a) Isoform”.)
